The values that follow come from patent US11491212.

To fix the notation:
B1: FIXa Y155F/R318Y/R338E/T343R (protein)
chain 1: not shown
chain 2: not shown
B2: FIXa K247N/N249S/T343R/R403E/E410N (protein)
chain 1: not shown
chain 2: not shown
B3: FIXa Y155F/K247N/N249S/R338E/R403E (protein)
chain 1: not shown
chain 2: not shown
B4: FIXa Y155F/K247N/N249S/R318Y/R338E/T343R/E410N (protein)
chain 1: not shown
chain 2: not shown
B5: FIXa Y155F/K247N/N249S/R338E/T343R (protein)
chain 1: not shown
chain 2: not shown
B6: FIXa-Y155F/K247N/N249S/R318Y/R338E/T343R/R403E/E410N (protein)
chain 1: not shown
chain 2: not shown
B7: FIXa-K228N/I251S/R318Y/R338E/R403E/E410N (protein)
chain 1: not shown
chain 2: not shown
B8: FIXa-Y155F/K228N/I251S/R318Y/R338E/R403E/E410N (protein)
chain 1: not shown
chain 2: not shown
B9: FIXa-N260S/R318Y/R338E/T343R/R403E/E410N (protein)
chain 1: not shown
chain 2: not shown
B10: FIXa R318Y/R338E/E410N (mature FIX numbering) (protein)
chain 1: not shown
chain 2: not shown
B11: FIXa-Y155F/R338E/T343R/R403E/E410N (protein)
chain 1: not shown
chain 2: not shown
B12: FIXa K228N/R338E/R403E (mature FIX numbering) (protein)
chain 1: not shown
chain 2: not shown
B13: FIXa-Y155F/K247N/N249S/N260S/R318Y/R338E/R403E/E410N (protein)
chain 1: not shown
chain 2: not shown
B14: FIXa-R318Y/T343R/R403E/E410N (protein)
chain 1: not shown
chain 2: not shown

For one series, the target named is Factor X (FX), P00742.
Factor X (FX), P00742, sequence (P00742 whole entry, looked up): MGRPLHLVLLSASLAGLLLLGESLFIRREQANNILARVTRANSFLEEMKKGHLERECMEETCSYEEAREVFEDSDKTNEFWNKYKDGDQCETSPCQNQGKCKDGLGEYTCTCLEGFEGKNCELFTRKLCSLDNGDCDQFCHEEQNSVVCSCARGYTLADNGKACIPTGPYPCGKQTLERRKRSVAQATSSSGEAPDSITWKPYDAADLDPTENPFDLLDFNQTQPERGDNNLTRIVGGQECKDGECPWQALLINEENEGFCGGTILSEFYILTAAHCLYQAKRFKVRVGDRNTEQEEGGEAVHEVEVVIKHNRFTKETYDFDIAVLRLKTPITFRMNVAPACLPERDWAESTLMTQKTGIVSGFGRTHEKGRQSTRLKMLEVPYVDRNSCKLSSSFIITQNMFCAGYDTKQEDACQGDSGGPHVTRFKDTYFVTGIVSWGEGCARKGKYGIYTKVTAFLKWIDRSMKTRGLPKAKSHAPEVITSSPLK
Take B1: the kcat (s^-1), activation of FX by FIXa in the Xase complex stood at 7.9 s⁻¹.
As for B2, the kcat (s^-1), activation of FX by FIXa in the Xase complex turned out to be 8 s⁻¹.

For a further series, the target named is Factor X, P00742.
Factor X, P00742, sequence (P00742 whole entry, looked up): as above
The term kcat/KM denotes the turnover number divided by the Michaelis constant. Consider B3, for which the “% of WT kcat/KM” value came out at 299% and the kcat/KM is 1.4e+08 M⁻¹ s⁻¹.
Regarding B4, the “% of WT kcat/KM” value is 1091% and the kcat/KM was found to be 5e+08 M⁻¹ s⁻¹.
On to B5, for which the “% of WT kcat/KM” value worked out at 1579% and the specificity constant (kcat/KM) was 7.3e+08 M⁻¹ s⁻¹.
Take B6: the catalytic efficiency (kcat/KM) was 4e+08 M⁻¹ s⁻¹.
On the same count and under the same terms, next, B7: 2.1e+08 M⁻¹ s⁻¹; B8: 1.4e+08 M⁻¹ s⁻¹; B9: 2.9e+08 M⁻¹ s⁻¹.
As to B1, the “% of WT kcat/KM” value is reported as 771% and the kcat/KM is 3.6e+08 M⁻¹ s⁻¹.
As to B10, the “% of WT kcat/KM” value stood at 770%.
In the case of B11, the kcat/KM was 2.4e+08 M⁻¹ s⁻¹.
For the protein B12, the “% of WT kcat/KM” value is on record as 108%.
As for B13, the kcat/KM was 5.7e+07 M⁻¹ s⁻¹.
With B2, the “% of WT kcat/KM” value is 285% and the kcat/KM is 1.3e+08 M⁻¹ s⁻¹.
Take B14: the specificity constant (kcat/KM) turned out to be 5.8e+07 M⁻¹ s⁻¹.
